“And” between values parts separate entries of the source, which are not always exact repeats. Identical values can stand only once.
Legend:
[1] = system: Aβ1-40 in Cynomolgus monkeys; assay: Cynomolgus monkeys, single IV dose, Aβ1-40 in plasma and CSF; type: in vivo, Cynomolgus monkey; details: 30 mg/kg IV
Procedure: (§1) Cynomolgus monkeys were dosed with control IgG or YW412.8.31 anti-BACE1 antibody (30 mg/kg) by IV delivery. Plasma and CSF were sampled up to 7 days prior to dosing to set mean baseline Aβ1-40 levels in each in individual animal, and then at various times after dosing. Total anti-BACE1 or control antibody concentrations in monkey serum and CSF samples were measured using monkey-adsorbed goat anti-human IgG polyclonal antibody (Bethyl, Montgomery, Tex.) as both coat and detection (FIG. 20). Free anti-BACE1 antibody concentrations in monkeys were determined using BACE1 ECD as coat and the monkey-adsorbed goat anti-human IgG antibody (Bethyl) for detection.
Aβ1-40 levels in plasma and CSF from Cynomolgus monkeys tested was also determined. Briefly, the concentrations of total cyno Aβ1-40 in plasma were determined using MSD MA6000 Human (6E10) Abeta Kit (Cat#K111BVE-2, Meso Scale Diagnostics) according to the Manufacturer's instructions. The capture antibody, specific for the C terminus of Aβ1-40, was pre-coated on the plates, and Sulfo-Tag anti-Aβ monoclonal antibody 6E10 was used for detection. The assay had lower limit of quantification values of 49.4 pg/ml in plasma. The concentrations of total cyno Aβ1-40 in CSF were determined using a sandwich ELISA. […]

[2] = Antibody concentration in monkey serum and CSF; type: in vivo, Cynomolgus monkey; details: 30 mg/kg IV
Procedure: as §1

murine BACE1 ECD = target: T1, murine BACE1 ECD (Mus musculus, UniProt P56818); assay: BIAcore SPR binding kinetics, mouse BACE1; details: mouse BACE1, pH 7.0, 25° C.
T1 construct: human BACE1 ECD or murine BACE1 ECD (amino acids 1-457) was injected in PBT buffer
Procedure: The binding kinetics of YW412.8.31 was assessed. Briefly, binding affinities of anti-BACE1 IgGs were measured by surface plasmon resonance (SPR) using a BIAcore™-3000 instrument. YW412.8.31 anti-BACE1 human IgG was captured by mouse anti-human Fc antibody (GE Healthcare, cat# BR-1008-39) coated on CM5 biosensor chips to achieve approximately 100 response units (RU). For kinetics measurements, two-fold serial dilutions (0.98 nM to 125 nM) of human BACE1 ECD or murine BACE1 ECD (amino acids 1-457) was injected in PBT buffer (PBS with 0.05% Tween 20) at 25° C. with a flow rate of 30 μl/min. Association rates (kon) and dissociation rates (koff) were calculated using a simple one-to-one Langmuir binding model (BIAcore™ Evaluation Software version 3.2). The equilibrium dissociation constant (KD) was calculated as the ratio koff/kon.

Cathepsin D = target: T2, Cathepsin D (Homo sapiens, UniProt P07339); assay: MCE assay, cathepsin D; type: biochemical
T2 construct: the extracellular domain of Cathepsin D (6 nM, Calbiochem®); purchased Calbiochem
Procedure: The MCE assay reactions were carried out in a final volume of 20 μL per well in a 384-well microplate. A standard enzymatic reaction, initiated by the addition of 10 μL 2× substrate to 5 μL of 4× enzyme and […] of 4× compound, containing 12 nM human BACE1 extracellular domain, […] amyloid precursor protein beta secretase active site peptide (FAM-[…]-CONH2 (SEQ ID NO:55)), 50 mM NaOAc pH 4.4 and 0.1% CHAPS. The same reaction conditions were used for the extracellular domain of human BACE2 enzyme (5 nM) and the extracellular domain of Cathepsin D (6 nM, Calbiochem®). After incubation for 60 minutes at ambient temperature, the product and substrate in each reaction were separated using a 12-sipper microfluidic chip analyzed on an LC3000® (both, Caliper Life Sciences). The separation of product and substrate was optimized by choosing voltages and pressure using the manufacturer's optimization software. The separate buffer contained 100 mM HEPES pH 7.2, 0.015% Brij-35, 0.1% coating reagent #3, 10 mM EDTA and 5% DMSO. The separation conditions used a downstream voltage of −500V, an upstream voltage of −2250V and a screening pressure of −1.2 psi. The product and substrate fluorescence was excited at a wavelength of 488 nm and detected at a wavelength of 530 nm. Substrate conversion was calculated from the electropherogram using HTS Well Analyzer software (Caliper Life Sciences).

[3] = system: E13.5 dorsal root ganglia neurons; assay: Aβ40 production in DRG neurons; type: cell-based, mouse; details: highest concentrations
Procedure: (§2) Similar studies were also performed in dorsal root ganglia, cortical neurons and hippocampal neurons isolated from mice. Briefly, dissociated neuronal cultures were prepared from E13.5 dorsal root ganglia (DRG), E16.5 cortical neurons and E16.5 hippocampal neurons. Neurons were grown for five days in vitro. Fresh media containing YW412.8.31 anti-BACE antibody or control IgG1 was incubated with the neurons for 24 hours. Media was harvested and assayed for the presence of Aβ40 using the MSD® Rodent/Human (4G8) A1340 Ultrasensitive kit according to the Manufacturer's instructions. Aβ40 values were normalized for cell viability, as determined using the CellTiter-Glo Luminescent Cell Viability Assay (Promega). The experiment was performed at least three times, and each point was repeated in duplicate. Data was plotted using a four-parameter non-linear regression curve-fitting program (Kaleidagraph, Synergy Software).

[4] = system: E16.5 cortical neurons and E16.5 hippocampal neurons; assay: Aβ40 production in cortical and hippocampal neurons; type: cell-based, mouse; details: 24 hours
Procedure: as §2

T1 sequence (P56818 22-457): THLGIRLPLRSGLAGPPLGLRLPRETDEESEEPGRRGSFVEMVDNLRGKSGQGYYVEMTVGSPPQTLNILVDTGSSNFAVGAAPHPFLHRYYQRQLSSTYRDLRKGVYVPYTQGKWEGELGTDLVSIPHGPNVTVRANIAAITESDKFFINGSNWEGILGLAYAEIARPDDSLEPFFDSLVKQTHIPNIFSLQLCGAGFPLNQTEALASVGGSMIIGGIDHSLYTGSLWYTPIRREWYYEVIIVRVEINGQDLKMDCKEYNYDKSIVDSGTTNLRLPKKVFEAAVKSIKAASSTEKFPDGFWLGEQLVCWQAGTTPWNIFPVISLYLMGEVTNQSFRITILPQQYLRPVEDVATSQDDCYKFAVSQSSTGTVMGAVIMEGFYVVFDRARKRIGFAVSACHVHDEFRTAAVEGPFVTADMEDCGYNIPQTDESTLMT
T2 sequence (P07339 65-412, species assumed): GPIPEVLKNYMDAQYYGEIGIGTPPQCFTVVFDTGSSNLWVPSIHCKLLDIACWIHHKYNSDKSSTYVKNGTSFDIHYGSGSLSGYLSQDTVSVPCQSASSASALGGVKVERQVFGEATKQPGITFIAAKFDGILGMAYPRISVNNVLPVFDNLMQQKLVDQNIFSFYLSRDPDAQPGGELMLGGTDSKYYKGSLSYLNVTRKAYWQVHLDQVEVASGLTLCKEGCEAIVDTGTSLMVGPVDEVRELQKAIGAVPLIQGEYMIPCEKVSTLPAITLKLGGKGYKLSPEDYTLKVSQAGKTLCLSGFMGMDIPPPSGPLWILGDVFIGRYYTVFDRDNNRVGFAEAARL

B1: YW412.8.31: affinity matured form of YW412.8 anti-BACE1 antibody (antibody, V domains shown)
VH: EVQLVESGGGLVQPGGSLRLSCAASGFTFLGYGIHWVRQAPGKGLEWVGWISPAGGSTDYADSVKGRFTISADTSKNTAYLQMNSLRAEDTAVYYCARGPFSPWVMDYWGQGTLVTVSS
VL: DIQMTQSPSSLSASVGDRVTITCRASQDVSTAVAWYQQKPGKAPKLLIYSASFLYSGVPSRFSGSGSGTDFTLTISSLQPEDFATYYCQQFPTYLPTFGQGTKVEIK
In the case of B1, the “reduction of CSF Aβ1-40” value ([1]; 1 and 3 days following dosing) is reported as “up to 50%”, the “reduction of plasma Aβ1-40 from baseline” value ([1]; sustained over 7 days) is reported as ~50% and the “concentration in CSF” value [2] is reported as 0.2-0.3 μg/ml and ~2 nM. For the same molecule, the “peak serum antibody concentration” value ([2]; 15 minutes post administration) was ~800 µg/mL, the serum antibody concentration ([2]; 7 days post-dose) was 232 µg/mL and the KON (murine BACE1 ECD) was 1.01 × 10^5 M^−1S^−1 and 1.4 × 10^5 M^−1S^−1. The Kd (murine BACE1 ECD) was 1.4 nM and 2.1 nM, the “inhibition of cathepsin D” value (Cathepsin D) was “did not inhibit” and the “reduction in Aβ40 production” value [3] was ~50%. The IC50 [4] was ~2.5 nM.
